B1: B-cell maturation antigen (BCMA)-immunoglobulin (Ig) (Fc fusion, UniProt Q02223 1-54, looked up)
chain: MLQMAGQCSQNEYFDSLLHACIPCQLRCSSNTPPLTCQRYCNASVTNSVKGTNA
notes: BCMA, soluble receptor-Fc fusion protein; Construct not described in the main text; Additional file 1 may describe it; also called BCMA-Ig
B2: Flag-zippered (zz) 12.6 form of APRIL (amino acids 110-250) (domain or fragment, human, UniProt O75888 110-250, looked up)
chain: KQKKQHSVLHLVPINATSKDDSDVTEVMWQPALRRGRGLQAQGYGVRIQDAGVYLLYSQVLFQDVTFTMGQVVSREGQGRQETLFRCIRSMPSHPDRAYNSCYSAGVFHLHQGDILSVIIPRARAKLNLSPHGTFLGFVKL
notes: human APRIL amino acids 110-250, downstream of the otPA leader, Flag and the zz12.6 trimerization domain; The APRIL chain of the heterotrimer m3; the zipper itself may help to hold the chains together; also called Flag-zz12.6 APRIL; APRIL NF zz12.6; source: CHO DXB11, co-expressed with Hisx6-zz12.6 BLyS, purified from conditioned media (Ni-NTA, heparin, SEC); not shown: Flag, N-terminal, kept; …
B3: a proliferation-inducing ligand (APRIL) homotrimer, recombinant (ligand, human, UniProt O75888 110-250, looked up)
chain: B2 chain
notes: APRIL, recombinant soluble homotrimer; Six lots were used for SPR; also called homotrimeric APRIL
B4: atacicept (Fc fusion, human, UniProt O14836 1-165, looked up)
chain: MSGLGRSRRGGRSRVDQEERFPQGLWTGVAMRSCPEEQYWDPLLGTCMSCKTICNHQSQRTCAAFCRSLSCRKEQGKFYDHLLRDCISCASICGQHPKQCAYFCENKLRSPVNLPPELRRQRSGEVENNSDNSGRYQGLEHRGSEASPALPGLKLSADQVALVYS
notes: also called TACI-Ig; soluble receptor fusion protein of TACI

What was measured:
Details in all cases: both partners purified
[1] = target: T1, recombinant BLyS/APRIL heterotrimer (Hisx6-zz12.6 BLyS with Flag-zz12.6 APRIL), predominantly 2 APRIL to 1 … (human, UniProt O75888 110-250; Q9Y275 141-285); assay: SPR; Biacore 3000; atacicept, BCMA-Ig and BAFF-R-Ig covalently immobilized on a CM4 chip; ligands ~0.05 to 20 nMol/L flowed at 50 ul/min, 25 C; 20 mmol/L sodium phosphate, 150 mmol/L NaCl, 0.05% polysorbate 20, pH 7.5; KD from ka and kd, global fit to a 1:1 model; stoichiometry not determined
T1 construct: human APRIL amino acids 110-250, downstream of the otPA leader, Flag and the proprietary zz12.6 trimerization domain; The preparation holds a small fraction of 1 APRIL to 2 BLyS (AB2) heterotrimers; also called heterotrimers; HT; not shown: Flag, N-terminal, kept; zz12.6 trimerization domain, N-terminal, kept; His6, N-terminal, kept; copies: 2 + 1
T1 sequence (Q9Y275 141-285, chain 2 of 2, one chain of several): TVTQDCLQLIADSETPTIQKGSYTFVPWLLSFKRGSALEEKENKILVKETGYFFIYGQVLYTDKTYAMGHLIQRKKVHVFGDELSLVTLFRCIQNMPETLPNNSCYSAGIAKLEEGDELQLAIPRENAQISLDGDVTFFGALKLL

[2] = target: B3; assay: as above
[3] = target: T2, Hisx6-zz12.6 form of BLyS (amino acids 141-285) (human, UniProt Q9Y275 141-285); assay: SEC-MALS; heterotrimer co-expressed in CHO, purified by Ni-NTA (His on BLyS), heparin and SEC; ratio of the chains by Western blot (anti-His, anti-Flag), confirmed by SEC-MALS
T2 construct: The BLyS chain of the heterotrimer m3; the zipper itself may help to hold the chains together; also called BLyS NH6 zz12.6; His-zz12.6 BLyS; source: CHO DXB11, co-expressed with Flag-zz12.6 APRIL, purified from conditioned media (Ni-NTA, heparin, SEC); not shown: His6, N-terminal, kept; zz12.6 trimerization domain, N-terminal, kept
T2 sequence (Q9Y275 141-285): as the sequence (Q9Y275 141-285, chain 2 of 2, one chain of several) above

atacicept = target: B4; assay: SPR; Biacore 3000; atacicept, BCMA-Ig and BAFF-R-Ig covalently immobilized on a CM4 chip; ligands ~0.05 to 20 nMol/L flowed at 50 ul/min, 25 C; 20 mmol/L sodium phosphate, 150 mmol/L NaCl, 0.05% polysorbate 20, pH 7.5; KD from ka and kd, global fit to a 1:1 model; stoichiometry not determined

Binder: B1
Kd [1]: 0.01 nM
Kd [2]: 0.0001 to 0.0003 nM

Binder: B2
stoichiometry N [3]: 2 APRIL per BLyS

Binder: B3
Kd (atacicept): 0.1 to 0.2 nM

Binder: B4
Kd [1]: 0.4 nM

— article PMC2888197, “B-lymphocyte stimulator/a proliferation-inducing ligand heterotrimers are elevated in the sera of patients with autoimmune disease and are neutralized by atacicept and B-cell maturation antigen-immunoglobulin” (Arthritis Research & Therapy, 2010)
